Experimental data taken from the supplement of paper PMC10065799, “High-throughput profiling of sequence recognition by tyrosine kinases and SH2 domains using bacterial peptide display” (eLife, 2023).
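Also: 11-residue human phosphosite peptides and single-mutation variants displayed on the E. coli surface, counted by deep sequencing, each peptide's frequency after selection divided by its frequency in the unselected input library; frequency after pTyr selection over input frequency; kinase dosed for 20-30% of maximal phosphorylation in three min.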

These sequences were tested on c-Src (assay: phosphorylation enrichment, bacterial display (enrichment ratio); higher = better substrate or ligand; peptides without Tyr show the background).
In the case of LKEIRYPPYTD [ALDH3B2_Y362_H361R], the phosphorylation enrichment is reported as 0.494. In the case of RHTRSYDFMEG [FGF7_Y56_YF], the phosphorylation enrichment is reported as 0.82. RGRSTYYWPSP [GAGE12J_Y9_R13S] showed a phosphorylation enrichment of 1.23. SVTCTYCPALN [TP53_Y126_S127C] was tested, and the phosphorylation enrichment was 0.581. EYFENYIEELK [PARP4_Y218] was tested, and the phosphorylation enrichment was 0.63. CNSFRYGGGGG [NPPA_Y151] was tested, and the phosphorylation enrichment was 0.311. With TKEPKYEGAGS [KIAA1210_Y1615] the phosphorylation enrichment was 0.315. IVAREYFSEAD [CAMK2A_Y106_YF] showed a phosphorylation enrichment of 0.491. For HSSPVYVGRVV [TGM2_Y219_R214H], the phosphorylation enrichment was 1.57. GEEIKDMLWLS [OTC_Y55_Y55D] gave a phosphorylation enrichment of 0.361. In the case of NDDDVYRSLEE [VAV2_Y142], the phosphorylation enrichment is reported as 0.584. Work on PLGPLYASSNP [INSR_Y992] yielded a phosphorylation enrichment of 1.35. AGIENYTSRFG [NKD2_Y256] gave a phosphorylation enrichment of 0.426. In the case of VCDALYPPGPP, the phosphorylation enrichment is reported as 0.443. With EVESPYEVRDY [GIGYF2_Y1168_H1171R] the phosphorylation enrichment was 4.71. Work on RPDSPYSRPHD [DOK2_Y271] yielded a phosphorylation enrichment of 0.372. EPVSDYINASI [PTPN11_Y304_N308S] gave a phosphorylation enrichment of 0.526. With RIFDFYSARKA [STOX1_Y858_YF] the phosphorylation enrichment was 0.645. For SFPPTYRFERG [INPPL1_Y661_YF], the phosphorylation enrichment was 0.592. For SLEKSYELLDG [ACTB_Y240_P243L], the phosphorylation enrichment was 0.52. Sequence LKSEMYQKLLK [RGS13_Y146] has a phosphorylation enrichment of 0.425. With PELINYHQPNS [BTK_Y361_H364P] the phosphorylation enrichment was 0.8. Sequence ISTAGYSFPEL [EDAR_Y406_I408F] has a phosphorylation enrichment of 0.487. Work on GSSEGYLHMVH [NIPBL_Y247_D246G] yielded a phosphorylation enrichment of 0.403. Sequence NCLREYVAGRF [CRB1_Y711] has a phosphorylation enrichment of 0.555. LFIDSYEKDVA [PGM1_Y521_YF] was tested, and the phosphorylation enrichment was 0.694. WDLSEYSFKDP [ITGA3_Y237_YF] showed a phosphorylation enrichment of 2.11. With AARVSYWLASG [DCHS1_Y1582_R1583W] the phosphorylation enrichment was 0.364. LITTLYIDFLG [KCNQ1_Y267_G269D] showed a phosphorylation enrichment of 1.22. CPSLLYSPVSS [CAMKK2_Y128_P127L] gave a phosphorylation enrichment of 3.5. GEEIKYMLWLS [OTC_Y55] was tested, and the phosphorylation enrichment was 0.518. Work on MGRVNYGAYIN [GLB1_Y485] yielded a phosphorylation enrichment of 0.393. Work on LDPMVYMNDTS [PTK2B_Y834_K838T] yielded a phosphorylation enrichment of 0.811.

These sequences were tested against Fes (UniProt P07332) in the same assay as above.
Chain of Fes (P07332 whole entry, looked up): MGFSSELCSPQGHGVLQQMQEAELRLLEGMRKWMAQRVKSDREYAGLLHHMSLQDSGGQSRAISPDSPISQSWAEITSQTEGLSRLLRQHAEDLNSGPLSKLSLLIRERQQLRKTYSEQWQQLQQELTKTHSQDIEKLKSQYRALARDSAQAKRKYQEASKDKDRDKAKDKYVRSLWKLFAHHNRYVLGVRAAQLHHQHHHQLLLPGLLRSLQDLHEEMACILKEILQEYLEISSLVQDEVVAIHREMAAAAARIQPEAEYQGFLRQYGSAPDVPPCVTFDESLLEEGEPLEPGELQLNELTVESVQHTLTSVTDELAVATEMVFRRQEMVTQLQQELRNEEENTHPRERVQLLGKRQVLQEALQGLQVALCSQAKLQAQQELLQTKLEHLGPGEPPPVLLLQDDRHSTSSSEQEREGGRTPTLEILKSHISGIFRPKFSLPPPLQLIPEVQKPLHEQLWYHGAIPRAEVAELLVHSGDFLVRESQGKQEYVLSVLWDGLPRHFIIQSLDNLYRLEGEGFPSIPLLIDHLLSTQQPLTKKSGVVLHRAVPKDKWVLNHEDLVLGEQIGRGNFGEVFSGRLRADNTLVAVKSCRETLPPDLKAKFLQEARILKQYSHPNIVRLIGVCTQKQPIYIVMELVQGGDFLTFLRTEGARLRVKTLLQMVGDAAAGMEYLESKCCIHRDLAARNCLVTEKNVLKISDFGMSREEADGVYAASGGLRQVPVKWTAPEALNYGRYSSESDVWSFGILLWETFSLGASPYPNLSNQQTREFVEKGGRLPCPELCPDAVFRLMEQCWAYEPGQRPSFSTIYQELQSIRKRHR
In the case of LKEIRYPPYTD [ALDH3B2_Y362_H361R], the phosphorylation enrichment is reported as 1.06. With RHTRSYDFMEG [FGF7_Y56_YF] the phosphorylation enrichment was 1.19. In the case of RGRSTYYWPSP [GAGE12J_Y9_R13S], the phosphorylation enrichment is reported as 0.885. Sequence SVTCTYCPALN [TP53_Y126_S127C] has a phosphorylation enrichment of 0.779. For EYFENYIEELK [PARP4_Y218], the phosphorylation enrichment was 1.4. In the case of CNSFRYGGGGG [NPPA_Y151], the phosphorylation enrichment is reported as 0.766. TKEPKYEGAGS [KIAA1210_Y1615] was tested, and the phosphorylation enrichment was 0.542. Work on IVAREYFSEAD [CAMK2A_Y106_YF] yielded a phosphorylation enrichment of 1.16. HSSPVYVGRVV [TGM2_Y219_R214H] gave a phosphorylation enrichment of 1.97. Work on GEEIKDMLWLS [OTC_Y55_Y55D] yielded a phosphorylation enrichment of 1. NDDDVYRSLEE [VAV2_Y142] was tested, and the phosphorylation enrichment was 1.23. Sequence PLGPLYASSNP [INSR_Y992] has a phosphorylation enrichment of 1.65. Work on AGIENYTSRFG [NKD2_Y256] yielded a phosphorylation enrichment of 0.719. Sequence VCDALYPPGPP has a phosphorylation enrichment of 0.794. EVESPYEVRDY [GIGYF2_Y1168_H1171R] gave a phosphorylation enrichment of 1.29. For RPDSPYSRPHD [DOK2_Y271], the phosphorylation enrichment was 0.519. EPVSDYINASI [PTPN11_Y304_N308S] showed a phosphorylation enrichment of 1.03. Sequence RIFDFYSARKA [STOX1_Y858_YF] has a phosphorylation enrichment of 1.59. Sequence SFPPTYRFERG [INPPL1_Y661_YF] has a phosphorylation enrichment of 0.603. Sequence SLEKSYELLDG [ACTB_Y240_P243L] has a phosphorylation enrichment of 1.16. Sequence LKSEMYQKLLK [RGS13_Y146] has a phosphorylation enrichment of 1.18. Sequence PELINYHQPNS [BTK_Y361_H364P] has a phosphorylation enrichment of 0.908. With ISTAGYSFPEL [EDAR_Y406_I408F] the phosphorylation enrichment was 0.878. Sequence GSSEGYLHMVH [NIPBL_Y247_D246G] has a phosphorylation enrichment of 0.679. NCLREYVAGRF [CRB1_Y711] was tested, and the phosphorylation enrichment was 0.891. For LFIDSYEKDVA [PGM1_Y521_YF], the phosphorylation enrichment was 2.05. Sequence WDLSEYSFKDP [ITGA3_Y237_YF] has a phosphorylation enrichment of 1.23. AARVSYWLASG [DCHS1_Y1582_R1583W] gave a phosphorylation enrichment of 1.17. Work on LITTLYIDFLG [KCNQ1_Y267_G269D] yielded a phosphorylation enrichment of 1.96. CPSLLYSPVSS [CAMKK2_Y128_P127L] gave a phosphorylation enrichment of 2.02. In the case of GEEIKYMLWLS [OTC_Y55], the phosphorylation enrichment is reported as 1.28. Sequence MGRVNYGAYIN [GLB1_Y485] has a phosphorylation enrichment of 0.617. Work on LDPMVYMNDTS [PTK2B_Y834_K838T] yielded a phosphorylation enrichment of 1.11.

The sequences below were run on Fer (mouse) in the same assay as above.
LKEIRYPPYTD [ALDH3B2_Y362_H361R] gave a phosphorylation enrichment of 0.541. Work on RHTRSYDFMEG [FGF7_Y56_YF] yielded a phosphorylation enrichment of 0.794. RGRSTYYWPSP [GAGE12J_Y9_R13S] showed a phosphorylation enrichment of 0.699. SVTCTYCPALN [TP53_Y126_S127C] was tested, and the phosphorylation enrichment was 0.394. For EYFENYIEELK [PARP4_Y218], the phosphorylation enrichment was 0.518. In the case of CNSFRYGGGGG [NPPA_Y151], the phosphorylation enrichment is reported as 0.488. With TKEPKYEGAGS [KIAA1210_Y1615] the phosphorylation enrichment was 0.378. Work on IVAREYFSEAD [CAMK2A_Y106_YF] yielded a phosphorylation enrichment of 0.563. HSSPVYVGRVV [TGM2_Y219_R214H] showed a phosphorylation enrichment of 1.63. With GEEIKDMLWLS [OTC_Y55_Y55D] the phosphorylation enrichment was 0.428. NDDDVYRSLEE [VAV2_Y142] showed a phosphorylation enrichment of 0.526. In the case of PLGPLYASSNP [INSR_Y992], the phosphorylation enrichment is reported as 1.82. AGIENYTSRFG [NKD2_Y256] showed a phosphorylation enrichment of 0.383. With VCDALYPPGPP the phosphorylation enrichment was 0.489. EVESPYEVRDY [GIGYF2_Y1168_H1171R] gave a phosphorylation enrichment of 5.62. In the case of RPDSPYSRPHD [DOK2_Y271], the phosphorylation enrichment is reported as 0.379. Work on EPVSDYINASI [PTPN11_Y304_N308S] yielded a phosphorylation enrichment of 0.5. For RIFDFYSARKA [STOX1_Y858_YF], the phosphorylation enrichment was 0.72. Sequence SFPPTYRFERG [INPPL1_Y661_YF] has a phosphorylation enrichment of 0.362. Sequence SLEKSYELLDG [ACTB_Y240_P243L] has a phosphorylation enrichment of 0.705. Work on LKSEMYQKLLK [RGS13_Y146] yielded a phosphorylation enrichment of 0.456. With PELINYHQPNS [BTK_Y361_H364P] the phosphorylation enrichment was 0.678. For ISTAGYSFPEL [EDAR_Y406_I408F], the phosphorylation enrichment was 0.425. With GSSEGYLHMVH [NIPBL_Y247_D246G] the phosphorylation enrichment was 0.424. For NCLREYVAGRF [CRB1_Y711], the phosphorylation enrichment was 0.417. For LFIDSYEKDVA [PGM1_Y521_YF], the phosphorylation enrichment was 0.767. With WDLSEYSFKDP [ITGA3_Y237_YF] the phosphorylation enrichment was 0.556. With AARVSYWLASG [DCHS1_Y1582_R1583W] the phosphorylation enrichment was 0.634. LITTLYIDFLG [KCNQ1_Y267_G269D] was tested, and the phosphorylation enrichment was 0.749. For CPSLLYSPVSS [CAMKK2_Y128_P127L], the phosphorylation enrichment was 12.2. For GEEIKYMLWLS [OTC_Y55], the phosphorylation enrichment was 0.745. MGRVNYGAYIN [GLB1_Y485] showed a phosphorylation enrichment of 0.34. Sequence LDPMVYMNDTS [PTK2B_Y834_K838T] has a phosphorylation enrichment of 0.787.

What follows are sequences tested against FGFR1 (UniProt P11362) in the same assay as above.
Chain of FGFR1 (P11362 whole entry, looked up): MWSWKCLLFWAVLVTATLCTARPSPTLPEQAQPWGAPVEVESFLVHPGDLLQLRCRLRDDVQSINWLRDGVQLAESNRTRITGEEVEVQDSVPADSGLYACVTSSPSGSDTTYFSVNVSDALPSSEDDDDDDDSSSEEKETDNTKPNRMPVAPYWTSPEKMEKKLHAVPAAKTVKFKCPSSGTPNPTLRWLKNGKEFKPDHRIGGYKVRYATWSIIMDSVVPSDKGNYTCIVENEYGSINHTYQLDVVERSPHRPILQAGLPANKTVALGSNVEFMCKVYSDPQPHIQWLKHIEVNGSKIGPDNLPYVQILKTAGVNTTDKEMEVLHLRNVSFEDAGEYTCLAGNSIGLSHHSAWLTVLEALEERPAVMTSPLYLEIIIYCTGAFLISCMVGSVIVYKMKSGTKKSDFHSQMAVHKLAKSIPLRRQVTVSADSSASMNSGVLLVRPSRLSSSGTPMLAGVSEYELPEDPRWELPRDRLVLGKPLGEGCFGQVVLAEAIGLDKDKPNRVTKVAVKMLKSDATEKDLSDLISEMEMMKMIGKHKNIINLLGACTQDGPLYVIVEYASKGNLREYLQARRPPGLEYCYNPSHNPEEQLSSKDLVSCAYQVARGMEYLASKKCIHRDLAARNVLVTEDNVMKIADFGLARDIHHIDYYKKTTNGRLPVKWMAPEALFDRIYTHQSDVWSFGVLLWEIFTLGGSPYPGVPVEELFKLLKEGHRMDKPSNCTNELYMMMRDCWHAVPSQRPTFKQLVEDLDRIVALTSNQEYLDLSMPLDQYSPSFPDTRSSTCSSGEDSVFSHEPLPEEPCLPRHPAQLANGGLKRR
LKEIRYPPYTD [ALDH3B2_Y362_H361R] showed a phosphorylation enrichment of 0.539. RHTRSYDFMEG [FGF7_Y56_YF] gave a phosphorylation enrichment of 0.591. RGRSTYYWPSP [GAGE12J_Y9_R13S] gave a phosphorylation enrichment of 1.49. SVTCTYCPALN [TP53_Y126_S127C] was tested, and the phosphorylation enrichment was 0.564. Work on EYFENYIEELK [PARP4_Y218] yielded a phosphorylation enrichment of 2.31. With CNSFRYGGGGG [NPPA_Y151] the phosphorylation enrichment was 0.389. For TKEPKYEGAGS [KIAA1210_Y1615], the phosphorylation enrichment was 0.403. IVAREYFSEAD [CAMK2A_Y106_YF] gave a phosphorylation enrichment of 0.508. With HSSPVYVGRVV [TGM2_Y219_R214H] the phosphorylation enrichment was 1.37. Sequence GEEIKDMLWLS [OTC_Y55_Y55D] has a phosphorylation enrichment of 0.475. NDDDVYRSLEE [VAV2_Y142] showed a phosphorylation enrichment of 0.608. Sequence PLGPLYASSNP [INSR_Y992] has a phosphorylation enrichment of 0.683. AGIENYTSRFG [NKD2_Y256] gave a phosphorylation enrichment of 0.434. VCDALYPPGPP showed a phosphorylation enrichment of 0.421. Work on EVESPYEVRDY [GIGYF2_Y1168_H1171R] yielded a phosphorylation enrichment of 0.542. In the case of RPDSPYSRPHD [DOK2_Y271], the phosphorylation enrichment is reported as 0.364. For EPVSDYINASI [PTPN11_Y304_N308S], the phosphorylation enrichment was 0.569. RIFDFYSARKA [STOX1_Y858_YF] gave a phosphorylation enrichment of 0.82. In the case of SFPPTYRFERG [INPPL1_Y661_YF], the phosphorylation enrichment is reported as 0.393. SLEKSYELLDG [ACTB_Y240_P243L] gave a phosphorylation enrichment of 0.508. LKSEMYQKLLK [RGS13_Y146] showed a phosphorylation enrichment of 0.749. With PELINYHQPNS [BTK_Y361_H364P] the phosphorylation enrichment was 0.723. Work on ISTAGYSFPEL [EDAR_Y406_I408F] yielded a phosphorylation enrichment of 0.457. For GSSEGYLHMVH [NIPBL_Y247_D246G], the phosphorylation enrichment was 0.388. With NCLREYVAGRF [CRB1_Y711] the phosphorylation enrichment was 0.53. LFIDSYEKDVA [PGM1_Y521_YF] gave a phosphorylation enrichment of 0.855. In the case of WDLSEYSFKDP [ITGA3_Y237_YF], the phosphorylation enrichment is reported as 0.625. AARVSYWLASG [DCHS1_Y1582_R1583W] showed a phosphorylation enrichment of 0.622. LITTLYIDFLG [KCNQ1_Y267_G269D] gave a phosphorylation enrichment of 1.09. CPSLLYSPVSS [CAMKK2_Y128_P127L] gave a phosphorylation enrichment of 1.38. In the case of GEEIKYMLWLS [OTC_Y55], the phosphorylation enrichment is reported as 0.682. MGRVNYGAYIN [GLB1_Y485] was tested, and the phosphorylation enrichment was 0.383. LDPMVYMNDTS [PTK2B_Y834_K838T] was tested, and the phosphorylation enrichment was 0.64.
